Data on two molecules can be found in patent US20220073630A1 (Hoffmann-La Roche, published 2022).

Positions count from the first letter of the chain named.

For the assay, the target named is T1, murine fibroblast activation protein (FAP) (murine, UniProt P97321 1-761).
T1 construct: whole, on cells; also called mFAP; murine FAP
T1 sequence: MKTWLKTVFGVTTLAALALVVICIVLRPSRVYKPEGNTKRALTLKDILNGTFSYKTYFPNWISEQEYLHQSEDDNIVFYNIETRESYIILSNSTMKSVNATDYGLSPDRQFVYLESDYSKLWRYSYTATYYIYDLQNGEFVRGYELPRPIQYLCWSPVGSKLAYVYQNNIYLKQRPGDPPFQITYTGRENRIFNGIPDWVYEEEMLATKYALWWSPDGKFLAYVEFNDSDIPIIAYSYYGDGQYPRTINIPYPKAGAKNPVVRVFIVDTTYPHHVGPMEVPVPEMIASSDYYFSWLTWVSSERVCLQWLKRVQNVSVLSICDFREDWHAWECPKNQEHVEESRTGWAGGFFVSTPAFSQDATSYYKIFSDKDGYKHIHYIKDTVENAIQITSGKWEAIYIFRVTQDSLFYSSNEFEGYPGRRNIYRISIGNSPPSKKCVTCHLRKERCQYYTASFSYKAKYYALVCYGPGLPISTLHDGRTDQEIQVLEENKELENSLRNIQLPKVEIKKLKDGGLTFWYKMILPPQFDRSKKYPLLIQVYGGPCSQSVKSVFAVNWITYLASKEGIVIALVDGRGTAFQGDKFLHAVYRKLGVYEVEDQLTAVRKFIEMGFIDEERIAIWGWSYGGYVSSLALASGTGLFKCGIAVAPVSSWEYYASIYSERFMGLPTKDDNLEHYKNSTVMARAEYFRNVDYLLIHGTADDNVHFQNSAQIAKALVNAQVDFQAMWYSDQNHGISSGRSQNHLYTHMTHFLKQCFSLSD
The experiment in a line: flow cytometry on target cells (data not shown). A general note: In flow cytometry, cells or beads pass a laser one at a time.

B1: m38-pMHC-I-anti-FAP-IgG (other)
heavy 1: SSPPMFRVGCGGSGGGGSGGGGSIQKTPQIQVYSRHPPENGKPNILNCYVTQFHPPHIEIQMLKNGKKIPKVEMSDMSFSKDWSFYILAHTEFTPTETDTYACRVKHASMAEPKTVYWDRDMGGGGSGGGGSGGGGSGGGGSGPHSLRYFVTAVSRPGLGEPRYMEVGYVDDTEFVRFDSDAENPRYEPRARWMEQEGPEYWERETQKAKGNEQSFRVDLRTLLGCYNQSKGGSHTIQVISGCEVGSDGRLLRGYQQYAYDGCDYIALNEDLKTWTAADMAALITKHKWEQAGEAERLRAYLEGTCVEWLRRYLKNGNATLLRTDSPKAHVTHHSRPEDKVTLRCWALGFYPADITLTWQLNGEELIQDMELVETRPAGDGTFQKWASVVVPLGKEQYYTCHVYHQGLPEPLTLRWGSEVQLLESGGGLVQPGGSLRLSCAASGFTFSSHAMSWVRQAPGKGLEWVSAIWASGEQYYADSVKGRFTISRDNSKNTLYLQMNSLRAEDTAVYYCAKGWLGNFDYWGQGTLVTVSSAKTTAPSVYPLAPVCGGTTGSSVTLGCLVKGYFPEPVTLTWNSGSLSSGVHTFPALLQSGLYTLSSSVTVTSNTWPSQTITCNVAHPASSTKVDKKIEPRVPITQNPCPPLKECPPCAAPDAAGGPSVFIFPPKIKDVLMISLSPMVTCVVVDVSEDAPDVQISWFVNNVEVHTAQTQTHREDYNSTLRVVSALPIQHQDWMSGKEFKCKVNNRALGSPIEKTISKPRGPVRAPQVCVLPPPAEEMTKKEFSLSCAITGFLPAEIAVDWTSNGRTEQNYKNTATVLDSDGSYFMVSKLRVQKSTWERGSLFACSVVHEGLHNHLTTKTISRSLGK
heavy 2: EVQLLESGGGLVQPGGSLRLSCAASGFTFSSHAMSWVRQAPGKGLEWVSAIWASGEQYYADSVKGRFTISRDNSKNTLYLQMNSLRAEDTAVYYCAKGWLGNFDYWGQGTLVTVSSAKTTAPSVYPLAPVCGGTTGSSVTLGCLVKGYFPEPVTLTWNSGSLSSGVHTFPALLQSGLYTLSSSVTVTSNTWPSQTITCNVAHPASSTKVDKKIEPRVPITQNPCPPLKECPPCAAPDAAGGPSVFIFPPKIKDVLMISLSPMVTCVVVDVSEDAPDVQISWFVNNVEVHTAQTQTHREDYNSTLRVVSALPIQHQDWMSGKEFKCKVNNRALGSPIEKTISKPRGPVRAPQVYVLPPCAEEMTKKEFSLWCMITGFLPAEIAVDWTSNGRTEQNYKNTATVLDSDGSYFMYSKLRVQKSTWERGSLFACSVVHEGLHNRFTTKTISRSLGK
light: EIVLTQSPGTLSLSPGERATLSCRASQSVSRSYLAWYQQKPGQAPRLLIIGASTRATGIPDRFSGSGSGTDFTLTISRLEPEDFAVYYCQQGQVIPPTFGQGTKVEIKRADAAPTVSIFPPSSEQLTSGGASVVCFLNNFYPKDINVKWKIDGSERQNGVLNSWTDQDSKDSTYSMSSTLTLTKDEYERHNSYTCEATHKTSTSPIVKSFNRNEC
notes: also called mCMV m38-pMHC-I-anti-FAP-IgG; pMHC-I-IgG
For B1, the binding result was “binds”.

B2: IE3-pMHC-I-anti-FAP-IgG (other)
heavy 1: B1 heavy 1 with S1R, S2A, P3L, P4E, M5Y, F6K, R7N, V8L
heavy 2: B1 heavy 2
light: B1 light
notes: Same build as m38-pMHC-I-anti-FAP-IgG, with the control peptide IE3; also called mCMV IE3-pMHC-I-anti-FAP-IgG; control fusion protein
Turning to B2, the binding result is on record as “binds”.
